From patent publication US20060263354A1 (published 2006) come the findings set out here.

B1: 2-43-1 (antibody, V domains shown)
VH: EVQLLESGGGLVQPGGSLRLSCAASGFTFSSYAMSWVRQAPGKGLEWVSAISGSGGSTFYADSVTGRFTISRDNSKNTLFLQLNSLRAEDTAVYHCAKDGRFNWNYGASDIWGQGTMVTVSS
VL: EIVMTQSPATLSVSPGERATLSCRTSQSVSSNLAWYQQKPGQAPRLLIYGASTRATGIPARFSGSGSGTEFTLTISSLQSEDFAVYYCQQYNNWPLTFGGGTKVEIKR
B2: 2-177-1 (antibody, V domains shown)
VH: EVQLLESGGGLIQPGGSLRLSCAASGFTFSSFAMSWVRQAPGKGLEWVSTISGSGGSTYYADFVKGRFTISRDNSKNTLYLQMNSLRAEDTAVYYCAKDGRYNWNYGAFDIWGQGTMVTVSS
VL: EIVMTQSPATLSVSPGERATLSCRASQSVRSNLAWFQQKPGQAPRLLIYGASTRATGIPARFSGSGSGTEFTLTISSLQSEDFAVYYCQQYNNWPLTFGGGTKVEIKR
B3: 2-112-1 (antibody, V domains shown)
VH: EVQLLESGGGLIQPGGSLRLSCAASGFTFSSFAMSWVRQAPGKGLEWVSTISGSGGYTFYADSVKGRFTISRDNSKNTLYLQMNSLRAEDTAVYYCAKDGRYNWNYGAFDIWGQGTMVTVSS
VL: EIVMTQSPATLSVSPGERATLSCRASQSVSSNLAWYQQKPGQAPRLLIYGASTRATGFPARFSGSGSGTEFTLTISSLQSEDFAIYYCQQYNNWPLTFGGGTKVEIKR
B4: 1-257-1 (antibody, V domains shown)
VH: EVQLVESGGGLVKPGGSLRLSCAASGFTFSSYSMNWVRQAPGKGLEWVSSISSSSSYIYYADSVKGRFTISRDNAKNSLYLQMNSLRAEDTAVYYCARDRGYYYGMDVWGQGTTVTVSS
VL: DIQMTQSPSSLSASVGDRVTLTCRASQGIRNALGWYQQKPGKAPKRLIYGASSLQSGVPSRFSGSGSGTEFTLTISSLQPEDFATYYCLQHNSYPFTFGPGTKVDIKR
B5: 1-268-1 (antibody, V domains shown)
VH: EVQLVESGGGLVKPGGSLRLSCAASGFTFSSYSMNWVRQAPGKGLEWVSSISSSSSYIYYADSVKGRFTISRDNAKNSLYLQMNSLRAEDTAVYYCARDRGSYFLFDYWGQGTLVTVSS
VL: DMQMTQSPSSLSASVGDRVTITCRASQGIRNDLGWYQQKPGKAPKRLIYGASSLQSGVPSRFSGSGSGTEFTLTISSLQPEDSATYYCLQHNSYPLTFGGGTKVEIKR
B6: 1-66-1 (antibody, V domains shown)
VH: EVQLVESGGGLVKPGGSLRLSCAASGFTFSSYSMNWVRQAPGKGLEWVSSISSSSSYIYYADSVKGRFTISRDNAKNSLYLQMNSLRAEDTAVYYCARDRGYSYGLDYWGQGTLVTVSS
VL: DIQMTQSPSSLSASVGDRVTITCRASQGIRNDLGWYQQKPGKAPKRLIYAASSLQSGVPSRFSGSGSGTEFTLTISSLQPEDFATYYCLQLNSYPFTFGPGTKVDIKR
B7: 1-136-3 (antibody, V domains shown)
VH: EVQLVESGGGLVKPGGSLRLSCAASGFTFSSYSMNWVRQAPGKGLEWVSSISSSSSYIYYADSVKGRFTISRDNAKNSLYLQMNSLRAEDTAVYYCARDRGYSYGIDYWGQGTLVTVSS
VL: DIQMTQSPSSLSASVGDRVTITCRASQGIRNALGWYQQKPGKAPKRLIYAASSLQSGVPSRFSGSGSGTEFTLTISSLQPEDFATYYCLQHNSYPRTFGQGTKVEIKR
B8: 1-116-1 (antibody, V domains shown)
VH: EVQLVESGGGLVKPGGSLRLSCAASGFTFSSYSMNWVRQAPGKGLEWVSSISSSSSYIYYADSVKGRFTISRDNAKNSLYLQMNSLRAEDTAVYYCARDRGYSYGLDYWGQGTLVTVSS
VL: DIQMTQSPSSLSASVGDRVTITCRASQGIRNALGWYQQKPGKAPQRLIYAASSLQSGVPSRFSGSGSGTEFTLTISSLQPEDFATYYCLQHNSYPRTFGQGTKVEIKR
B9: 1-314-1 (antibody, V domains shown)
VH: EVQLVESGGGLVKPGGSLRLSCAASGFTFSSYSMNWVRQAPGKGLEWVSSISSSSSYIYYADSVKGRFTISRDNAKNSLYLQMNSLRAEDTTVYYCARDRGYLYGMDVWGQGTTVTVSS
VL: DIQMTQSPSSLSASVGDRVTITCRASQAIRNDLGWYQQKPGKAPKRLIYAASSLQSGVPSRFSGSGSGTEFTLTISSLQPEDFATYYCLQHNSYPRTFGQGTKVEIKR

mature GDF8, sequence (O14793 267-375): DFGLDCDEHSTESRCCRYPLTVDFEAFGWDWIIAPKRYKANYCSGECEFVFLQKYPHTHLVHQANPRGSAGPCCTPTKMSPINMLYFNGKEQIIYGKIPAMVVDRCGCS

This test has as its target mature GDF8 (UniProt O14793 267-375). Put plainly: BIAcore.
As for B1, the Kd was 1.5 nM. This lies in the single-digit nanomolar range.

B2 had a Kd of 0.89 nM. This Kd lies about 1.7-fold lower than the previous one.

The molecule B3 showed a Kd of 0.011 nM.

Turning to B4, binding was put at a Kd of 0.16 nM.

Consider B5, for which the dissociation constant (Kd) was 0.24 nM.

As to B6, the affinity, expressed as Kd, was 0.083 nM.

Take B7: binding was put at a Kd of 0.043 nM.

In the case of B8, binding was characterised by a dissociation constant (Kd) of 0.012 nM.

Take B9: binding was put at a Kd of 0.11 nM.
